Laboratory results published in patent US7740853.

Biological target: mouse low affinity IgE receptor FcεRII (mouse) (UniProt P20693)
Assay: FACS analysis of 0.12A3 cells with the B3B4 antibody

UniProt P20693, sequence (P20693 whole entry): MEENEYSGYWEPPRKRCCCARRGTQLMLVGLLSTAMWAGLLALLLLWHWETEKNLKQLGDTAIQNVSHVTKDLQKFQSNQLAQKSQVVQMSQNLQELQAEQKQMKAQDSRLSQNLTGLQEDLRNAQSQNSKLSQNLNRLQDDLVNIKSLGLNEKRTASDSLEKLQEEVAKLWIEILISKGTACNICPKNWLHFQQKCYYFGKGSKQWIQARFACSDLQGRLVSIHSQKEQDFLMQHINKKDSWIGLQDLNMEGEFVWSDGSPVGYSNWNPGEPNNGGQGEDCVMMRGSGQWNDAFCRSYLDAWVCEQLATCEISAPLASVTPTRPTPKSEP

- percent of cells on which the receptor was expressed: 54%
Substance: B3B4 antibody against the FcεRII receptor (Pharmigin)
